{
  "source": "patent US20140314774A1",
  "about": "(UAB RESEARCH FOUNDATION, published 2014)",
  "key": {"[1]": {"biological_target": "T1, recombinant soluble HER3 (extracellular domain) (UniProt P21860 20-643, limits assumed)", "T1 construct": "extracellular domain; also called ERBB3", "T1 sequence (P21860 20-643 limits assumed)": "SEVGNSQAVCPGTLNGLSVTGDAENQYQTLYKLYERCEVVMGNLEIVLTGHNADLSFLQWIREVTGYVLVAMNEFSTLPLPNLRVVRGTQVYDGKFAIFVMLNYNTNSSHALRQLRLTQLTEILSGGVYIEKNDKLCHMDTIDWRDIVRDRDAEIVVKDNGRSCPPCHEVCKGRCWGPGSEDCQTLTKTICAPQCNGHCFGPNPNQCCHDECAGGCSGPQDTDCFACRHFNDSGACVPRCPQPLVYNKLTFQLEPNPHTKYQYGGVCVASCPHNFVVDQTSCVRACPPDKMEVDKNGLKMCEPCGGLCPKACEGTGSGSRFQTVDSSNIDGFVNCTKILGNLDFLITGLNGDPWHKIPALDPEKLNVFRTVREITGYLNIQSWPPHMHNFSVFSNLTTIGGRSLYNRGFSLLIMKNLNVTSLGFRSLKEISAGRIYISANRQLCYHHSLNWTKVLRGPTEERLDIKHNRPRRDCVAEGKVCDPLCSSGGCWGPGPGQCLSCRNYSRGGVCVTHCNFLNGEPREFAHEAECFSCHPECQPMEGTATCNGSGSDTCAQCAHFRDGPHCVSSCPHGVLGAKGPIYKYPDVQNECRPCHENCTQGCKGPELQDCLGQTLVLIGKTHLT", "assay": "NRG1 competition ELISA on coated recombinant soluble HER3"}, "[2]": {"biological_target": "T2, HER3 on HER3-transfected SP 2/0 cells (human, UniProt P21860 20-1342)", "T2 construct": "whole, on cells; The flow cytometry text says only 'HER3 transfected SP2/0 cells'; also called human HER3 expressing SP 2/0 cells", "T2 sequence (P21860 20-1342)": "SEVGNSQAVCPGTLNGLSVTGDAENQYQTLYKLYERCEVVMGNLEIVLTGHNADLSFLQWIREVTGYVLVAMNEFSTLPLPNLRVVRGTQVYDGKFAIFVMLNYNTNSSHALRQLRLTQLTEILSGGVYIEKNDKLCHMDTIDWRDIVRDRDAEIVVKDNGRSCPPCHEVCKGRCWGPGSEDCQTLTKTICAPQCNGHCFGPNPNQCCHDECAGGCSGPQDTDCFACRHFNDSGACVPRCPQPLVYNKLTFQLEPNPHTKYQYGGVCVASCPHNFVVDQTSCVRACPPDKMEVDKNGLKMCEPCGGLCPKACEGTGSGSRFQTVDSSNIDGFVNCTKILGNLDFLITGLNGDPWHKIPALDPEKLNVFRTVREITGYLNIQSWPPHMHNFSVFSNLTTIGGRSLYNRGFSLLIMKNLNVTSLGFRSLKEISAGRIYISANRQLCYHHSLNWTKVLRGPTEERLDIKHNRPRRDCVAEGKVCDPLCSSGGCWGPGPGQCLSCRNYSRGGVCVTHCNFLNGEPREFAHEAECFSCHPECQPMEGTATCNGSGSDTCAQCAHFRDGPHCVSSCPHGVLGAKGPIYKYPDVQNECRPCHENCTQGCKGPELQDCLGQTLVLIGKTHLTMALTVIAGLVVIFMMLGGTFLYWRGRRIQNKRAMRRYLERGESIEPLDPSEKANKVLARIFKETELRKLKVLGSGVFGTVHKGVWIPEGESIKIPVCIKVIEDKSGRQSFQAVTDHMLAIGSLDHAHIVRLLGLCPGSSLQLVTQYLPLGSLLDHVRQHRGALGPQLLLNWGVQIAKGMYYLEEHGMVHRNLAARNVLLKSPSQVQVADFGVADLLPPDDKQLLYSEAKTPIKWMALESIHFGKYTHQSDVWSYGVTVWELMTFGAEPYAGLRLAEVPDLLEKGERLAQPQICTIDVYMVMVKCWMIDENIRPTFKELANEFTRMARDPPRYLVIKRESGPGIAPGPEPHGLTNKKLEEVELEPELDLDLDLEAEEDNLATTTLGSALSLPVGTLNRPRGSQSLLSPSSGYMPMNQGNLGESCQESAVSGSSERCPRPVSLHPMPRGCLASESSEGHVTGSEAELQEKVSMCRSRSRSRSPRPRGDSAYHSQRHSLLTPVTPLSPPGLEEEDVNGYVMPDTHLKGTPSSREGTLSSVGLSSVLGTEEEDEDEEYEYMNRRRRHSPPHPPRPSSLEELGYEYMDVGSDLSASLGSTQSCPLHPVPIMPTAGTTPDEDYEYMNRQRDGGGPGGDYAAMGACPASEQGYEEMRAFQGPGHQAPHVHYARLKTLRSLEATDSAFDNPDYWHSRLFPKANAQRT", "assay": "flow cytometry, HER3-transfected SP2/0 cells stained with 1 µg/ml antibody, PE-goat anti-mouse IgG", "procedure": "The average OD values of triplicates are presented. […] EGFR, HER2 or HER3-transfected SP 2/0 cells were stained with 1 μg/ml of purified antibody, followed by PE-goat anti-mouse IgG.\nAn ELISA plate was coated with 1 μg/ml of recombinant soluble EGFR, HER2, or the extracellular domain of HER3."}},
  "data": [
    {"binder": "3D4 antibody (antibody, V domains shown, Mouse monoclonal antibody raised against human HER3 expressing SP 2/0 cells; also called ligand-dependent HER3 antibody) VH: QVQLQQSGPELVKPGASVRISCKASGYTFTNYFLHWMKQRPGQGLEWIGWIYPGNVNTKYSEKFKGKATLTADKSSSTAYMQLSSLTSEDSAVYFCARSTYYSMDYWGQGTSVTVSS VL: DIVLTQSPASLAVSLGQRATISCRASESVDSYGNSFMNWYQQKPGQPPKVLIYRASNLESGIPARFSGSGSRTDFTLTITPVEADDVATYYCQQSYEDPPTFGGGTKLEIK", "values": [
      {"measurement": "binding result", "setting": "[1]", "value": "binds"},
      {"measurement": "binding result", "setting": "[2]", "value": "binds"}
    ]},
    {"binder": "1A5 antibody (antibody, V domains shown, Hybridoma monoclonal antibody detected with goat anti-mouse IgG; also called ligand-independent HER3 antibody) VH: QVQLQQSGAELARPGASVKLSCKASGYTFTDNYINWMKQRPGQGLEWIGEIYPGSGNTYYNEKFKGKATLTADKSSSTAYMQLSSLTSEESAVYFCARSPNLRLYYFDYWGQGTTLTVSS VL: DIVMTQSPATLSVTPGDRVSLSCRASQSINDYLYWYQQKLHESPRLLIKFASHSISGIPSRFSGSGSGSDFTLSINSVEPEDVGVYYCQNGHSFPLTFGAGTKLELK", "values": [
      {"measurement": "binding result", "setting": "[1]", "value": "binds"},
      {"measurement": "binding result", "setting": "[2]", "value": "binds"}
    ]}
  ]
}
